Laboratory results reported in patent US20230375530A1, “HUMAN BLOOD-BRAIN BARRIER MODEL FOR IMMUNOLOGICAL STUDIES” (WISCONSIN ALUMNI RESEARCH FOUNDATION, priority 2020, published 2023).

B1: Wnt3a: ligand widely used to activate canonical Wnt/β-catenin signaling (R&D Systems) (protein, UniProt P56704 19-352, looked up)
Protein Wnt-3a: SYPIWWSLAVGPQYSSLGSQPILCASIPGLVPKQLRFCRNYVEIMPSVAEGIKIGIQECQHQFRGRRWNCTTVHDSLAIFGPVLDKATRESAFVHAIASAGVAFAVTRSCAEGTAAICGCSSRHQGSPGKGWKWGGCSEDIEFGGMVSREFADARENRPDARSAMNRHNNEAGRQAIASHMHLKCKCHGLSGSCEVKTCWWSQPDFRAIGDFLKDKYDSASEMVVEKHRESRGWVETLRPRYTYFKVPTERDLVYYEASPNFCEPNPETGSFGTRDRTCNVSSHGIDGCDLLCCGRGHNARAERRREKCRCVFHWCCYVSCQECTRVYDVHTCK
B2: Wnt7a: recombinant Wnt ligand (Peprotech) (protein, UniProt O00755 32-349, looked up)
Protein Wnt-7a: LGASIICNKIPGLAPRQRAICQSRPDAIIVIGEGSQMGLDECQFQFRNGRWNCSALGERTVFGKELKVGSREAAFTYAIIAAGVAHAITAACTQGNLSDCGCDKEKQGQYHRDEGWKWGGCSADIRYGIGFAKVFVDAREIKQNARTLMNLHNNEAGRKILEENMKLECKCHGVSGSCTTKTCWTTLPQFRELGYVLKDKYNEAVHVEPVRASRNKRPTFLKIKKPLSYRKPMDTDLVYIEKSPNYCEEDPVTGSVGTQGRACNKTAPQASGCDLMCCGRGYNTHQYARVWQCNCKFHWCCYVKCNTCSERTEMYTCK
B3: Wnt7b: recombinant Wnt ligand (Abnova) (protein, UniProt P56706 25-349, looked up)
Protein Wnt-7b: ALSSVVALGANIICNKIPGLAPRQRAICQSRPDAIIVIGEGAQMGINECQYQFRFGRWNCSALGEKTVFGQELRVGSREAAFTYAITAAGVAHAVTAACSQGNLSNCGCDREKQGYYNQAEGWKWGGCSADVRYGIDFSRRFVDAREIKKNARRLMNLHNNEAGRKVLEDRMQLECKCHGVSGSCTTKTCWTTLPKFREVGHLLKEKYNAAVQVEVVRASRLRQPTFLRIKQLRSYQKPMETDLVYIEKSPNYCEEDAATGSVGTQGRLCNRTSPGADGCDTMCCGRGYNTHQYTKVWQCNCKFHWCCFVKCNTCSERTEVFTCK
B4: Rspo1: potentiator of Wnt signaling (protein, UniProt Q2MKA7 21-263, looked up)
R-spondin-1: SRGIKGKRQRRISAEGSQACAKGCELCSEVNGCLKCSPKLFILLERNDIRQVGVCLPSCPPGYFDARNPDMNKCIKCKIEHCEACFSHNFCTKCKEGLYLHKGRCYPACPEGSSAANGTMECSSPAQCEMSEWSPWGPCSKKQQLCGFRRGSEERTRRVLHAPVGDHAACSDTKETRRCTVRRVPCPEGQKRRKGGQGRRENANRNLARKESKEAGAGSRRRKGQQQQQQQGTVGPLTSAGPA

How the values were obtained:
[1] = test system: EECM-BMEC-like cell monolayers; assay type: in vitro ADME, human
Description: EPCs purified as described above were plated on collagen IV (10 μg/ml)-coated plates in hECSR medium in the presence of 5 μM ROCK inhibitor Y-27632 of 10′000-20′000/cm^2 as described before (33). Twenty-four hours later, medium was changed to hECSR without ROCK inhibitor and then medium was changed every 2 days. Once the cells reached 100% confluency (FIG. 3B (i)), the cells were passaged using Accutase (Innovative Cell Technologies, San Diego, CA, USA). In detail, medium was removed and 1 ml of Accutase was added to the 6-well plate and cells were carefully observed under an inverted microscope (Zeiss Axiovert 25). Once endothelial cells started to become round (FIG. 3B (ii)), the endothelial cells were physically detached by tapping the 6-well plate (FIG. 3B (iii)). […] These cell densities were found optimal for achieving closed monolayers. Coating with collagen IV/fibronectin for Transwell filters was chosen as it was previously shown to be optimal for growing primary BMECs and for UMM-BMEC-like cells. […]
Bovine pericytes (15), the human brain pericyte cell line (HBPCT) (34), the human astrocyte cell line (hAST) (35), and hiPSC-derived astrocytes (iPS_AC) (29) were obtained and maintained as previously described. […] Transendothelial electrical resistance (TEER) was measured using a Volt-Ohm-Meter (Millicell ERS-2, MERSSTX01-electrode). […]

[2] = test system: UMM- and DMM-differentiated BMEC-like cells
Description: Unconditioned medium method (UMM) (14, 16) and defined medium method (DMM) (17) were slightly modified and used to differentiate brain microvascular endothelial-like cells (BMEC-like cells). In brief, hiPSCs were seeded onto a Matrigel-coated plate in mTeSR1 supplemented with 10 μM ROCK inhibitor Y-27632 (Selleckchem, Houston, TX, USA) for 24 hours (day −3 or day −4). […] At day 0, cells were induced to differentiate using specific medium for each method: For UMM, medium was switched to unconditioned medium (DMEM/F12 with 20% Knockout serum replacement, 1× non-essential amino acids, 0.5× Glutamax, and 0.1 mM β-mercaptoethanol) and changed every day for 6 days. For DMM, medium was switched to DeSR1 (DMEM/F12 with 1× non-essential amino acids, 0.5× Glutamax, and 0.1 mM β-mercaptoethanol) supplemented with 6 μM CHIR99021 (Selleckchem, Houston, TX, USA) and cultured for 24 hours. […]
(§1) Permeability of EC monolayers was assessed by measuring the clearance of sodium fluorescein (NaFl, 376.3 Da, Sigma-Aldrich) as previously described (16). […] Medium samples containing fluorescent tracer that had diffused across the monolayers were collected from the bottom well every 15 min for a total of 60 min, and fluorescence intensity was measured in a Tecan Infinite M1000 multi-well reader (Tecan Trading AG, Männedorf, Switzerland). […]

[3] = test system: hPSC-derived endothelial progenitors (Passage 1 ECs); experiment: Immunocytochemistry of Passage 1 ECs treated with Wnt ligands, CHIR or conditioned media; assay type: cell-based, human; conditions: for fraction of GLUT-1+ ECs vs control: Passage 1 ECs, 6 days, Wnt3a 20 ng/mL, Wnt7a 50 ng/mL, Wnt7b 50 ng/mL; for EC purity (proportion of ECs compared to SMLCs): Passage 1 cultures, 6 days treatment
Description: Collagen IV (Sigma-Aldrich) was dissolved in 0.5 mg/mL acetic acid to a final concentration of 1 mg/mL. Collagen IV-coated plates were prepared by diluting a volume of this stock solution 1:100 in water, adding the resulting solution to tissue culture plates, or #1.5 glass bottom plates (Cellvis, Sunnyvale, CA) for cells intended for confocal imaging (1 mL per well for 6-well plates, 0.5 mL per well for 12-well plates, 0.25 mL per well for 24-well plates), and incubating the plates for 1 h at RT. Collagen IV coating solution was removed and EPCs obtained as described above were suspended in hECSR medium and plated at approximately 3×10^4 cells/cm^2. In some experiments, cells were suspended in NR-CM or Astro-CM. In some experiments, ligands and small molecules were added to hECSR medium: CHIR 99021 (Tocris) was used at 4 μM except where indicated; DMSO (Sigma-Aldrich) was used as a vehicle control for CHIR; Wnt3a (R&D Systems) was used at 20 ng/mL; Wnt7a (Peprotech, Rocky Hill, NJ) was used at 50 ng/mL; Wnt7b (Abnova, Tapei, Taiwan) was used at 50 ng/mL; R-spondin 1 (Rspo1; Peprotech) was used at 50 ng/mL; doxycycline was used at 1, 2, or 4 μg/mL. The hECSR medium or CM, including any ligands or small molecules, was replaced every other day until confluent (typically 6 days). We denote this time point “Passage 1.”
Immunocytochemistry was performed in 24-well plates. Cells were washed once with 500 μL DPBS and fixed with 500 μL cold (−20° C.) methanol for 5 min, except cells intended for calponin/SM22a and CD31/Ki67 detection, which were fixed with 500 μL of 4% paraformaldehyde for 15 min. Cells were washed three times with 500 μL DPBS and blocked in 150 μL DPBS supplemented with 10% goat serum (Life Technologies) for 1 h at room temperature, except cells intended for calponin/SM22α detection, which were blocked and permeabilized in DPBS supplemented with 3% BSA and 0.1% Triton X-100, or cells intended for CD31/Ki67 detection, which were blocked and permeabilized in DPBS supplemented with 5% non-fat dry milk and 0.4% Triton X-100. Primary antibodies diluted in 150 μL of the above blocking solutions (see Table 6 for antibody information) were added to cells and incubated overnight at 4° C. on a rocking platform. Cells were washed three times with 500 μL DPBS. Secondary antibodies diluted in 150 μL of the above blocking solutions (see Table 6 for antibody information) were added to cells and incubated for 1 h at room temperature on a rocking platform, protected from light. Cells were washed three times with 500 μL DPBS, followed by 5 min incubation with 500 μL DPBS plus 4 μM Hoechst 33342 (Life Technologies). Images were acquired using an Eclipse Ti2-E epifluorescence microscope (Nikon, Tokyo, Japan) with a 20× objective or an A1R-Si+ confocal microscope (Nikon) with a 100× oil objective. Confocal images were acquired with 1 μm slice spacing.
Images were analyzed using FIJI (ImageJ) software. For epifluorescence images, 5 fields (20×) were analyzed per well, with 3-4 wells per treatment condition. For quantification of cell number, EC colonies were manually outlined, and the Analyze Particles function was used to estimate the number of nuclei within the EC colonies. Nuclei outside the EC colonies were manually counted. EC purity (% EC) was calculated as the number of nuclei within EC colonies relative to total nuclei. To estimate % GLUT-1^+ ECs, cells within the EC colonies with membrane-localized GLUT-1 immunoreactivity (e.g., arrowheads in FIG. 24B) were manually counted. To estimate % Ki67^+ ECs, cells within the EC colonies with at least one nuclear-localized Ki67 punctum were manually counted. For quantification of fluorescence intensity in epifluorescence images, EC colonies were manually outlined, and the Measure function was used to obtain the mean fluorescence intensity for each image channel (fluorophore). A cell-free area of the plate was similarly quantified for background subtraction. […]

Description for hiPSC-derived naïve ECs: CD34^+ CD31^+ endothelial progenitor cells (EPCs) were differentiated from hiPSCs as described (32, 33). In brief, hiPSCs were seeded onto a Matrigel-coated plate in mTeSR1 supplemented with 5 μM ROCK inhibitor Y-27632 for 24 hours (day −3). Seeding densities at day −3 were optimized between 16′000/cm^2 to 132′000/cm^2 depending on donor and passage in order to obtain high number of CD34^+ CD31^+ EPCs. At day 0 and day 1, medium was changed to LaSR basal medium (Advanced DMEM/F12, 2.5 mM GlutaMAX, and 60 μg/ml ascorbic acid) supplemented with 8 μM CHIR99021. At day 2, medium was switched to LaSR basal medium and changed every day for another 3 days. […] Purified EPCs were seeded onto collagen IV/fibronectin-coated Transwell filters at a density of 100′000/cm^2 or collagen-IV (10 μg/ml)-coated culture plates at a density of 10′000-20′000/cm^2 in hECSR medium and used for assay or further extended EC culture.
as §1

Molecule	fraction of GLUT-1+ ECs vs control [3]	EC purity (proportion of ECs compared to SMLCs) [3]	other results
O=C([O-])c1ccccc1-c1c2ccc(=O)cc-2oc2cc([O-])ccc12.[Na+].[Na+] [sodium fluorescein]	–	–	lower permeability compared to naïve ECs [1]: ~10 fold; PeNaFl, permeability to sodium fluorescein (hiPSC-derived naïve ECs): 2-10 ×10^−3 cm/min; permeability to sodium fluorescein [2]: less than 0.6 ×10^−4 cm/min
B1	significant increase	not Wnt3a	–
B2	slightly increased	increased the proportion of ECs	–
B3	not Wnt7b alone	–	–
B4	–	–	EC purity or expression of GLUT-1, claudin-5 or caveolin-1 ([3]; Rspo1 50 ng/mL in combination with Wnt ligands): did not affect
